# Laboratory results from article PMC10359280, “A maize epimerase modulates cell wall synthesis and glycosylation during stomatal morphogenesis” (Nature Communications, 2023).
# Columns and labels:
# [1] = target: BZU3 (maize UDP-glucose 4-epimerase), recombinant 6×His-BZU3 (maize); assay: crystal structure; BZU3 (~5.0 mg/ml) crystallised by sitting-drop vapor diffusion, 100 mM sodium malonate pH 5.0, 12~16% PEG3350; apo form and crystals soaked with 5 mM UDP-Glc or UDP-GlcNAc
# BZU3 [2] = target: T1, BZU3 (Zea mays, UniProt C0HI30); assay: X-ray crystal structure; format: binding; settings: no ligand soak for 7XPP; with UDP-Glc 7XPO; with UDP-GlcNAc 7XPQ
# T1 construct: gene ZEAMMB73_Zm00001d029151; residues 1-189 NAD domain, 190-355 sugar domain; homo-dimer
# T1 sequence (C0HI30 1-355): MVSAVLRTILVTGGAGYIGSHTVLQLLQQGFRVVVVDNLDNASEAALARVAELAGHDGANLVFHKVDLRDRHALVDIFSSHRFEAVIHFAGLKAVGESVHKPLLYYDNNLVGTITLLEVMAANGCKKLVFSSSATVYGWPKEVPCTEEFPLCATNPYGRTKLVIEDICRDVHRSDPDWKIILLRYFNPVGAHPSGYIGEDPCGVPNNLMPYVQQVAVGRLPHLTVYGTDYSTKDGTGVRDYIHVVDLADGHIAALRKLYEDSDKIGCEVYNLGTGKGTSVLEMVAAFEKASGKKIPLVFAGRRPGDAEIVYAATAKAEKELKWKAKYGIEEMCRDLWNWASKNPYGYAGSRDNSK
# BZU3 [3] = target: T1, BZU3; assay: X-ray crystal structure, […] Å, soaked with […] ligand; format: binding; settings: ternary complex with NAD+, crystals at pH 5.0
# [4] = substrate: CC(=O)N[C@H]1[C@@H](OP(=O)(O)OP(=O)(O)OC[C@H]2O[C@@H](n3ccc(=O)[nH]c3=O)[C@H](O)[C@@H]2O)O[C@H](CO)[C@@H](O)[C@@H]1O; assay: HPLC of UDP-GlcNAc/UDP-GalNAc, Michaelis-Menten; format: biochemical, Zea mays; settings: similar protocol (10 mM Tris-HCl pH 8.0, 30 °C)
# [5] = substrate: CC(=O)N[C@H]1[C@@H](OP(=O)(O)OP(=O)(O)OC[C@H]2O[C@@H](n3ccc(=O)[nH]c3=O)[C@H](O)[C@@H]2O)O[C@H](CO)[C@H](O)[C@@H]1O; assay: HPLC of UDP-GlcNAc/UDP-GalNAc, Michaelis-Menten; format: biochemical, Zea mays; settings: similar protocol (10 mM Tris-HCl pH 8.0, 30 °C)
# [6] = substrate: O=c1ccn([C@@H]2O[C@H](CO[P@@](=O)(O)O[P@@](=O)(O)O[C@H]3O[C@H](CO)[C@@H](O)[C@H](O)[C@H]3O)[C@@H](O)[C@H]2O)c(=O)[nH]1; assay: HPLC of UDP-Glc/UDP-Gal, Michaelis-Menten; format: biochemical, Zea mays; settings: 10 mM Tris-HCl pH 8.0, 30 °C, 25 nM enzyme, 1 min
# [7] = substrate: O=c1ccn([C@@H]2O[C@H](COP(=O)(O)OP(=O)(O)O[C@H]3O[C@H](CO)[C@H](O)[C@H](O)[C@H]3O)[C@@H](O)[C@H]2O)c(=O)[nH]1; assay: HPLC of UDP-Glc/UDP-Gal, Michaelis-Menten; format: biochemical, Zea mays; settings: 10 mM Tris-HCl pH 8.0, 30 °C, 25 nM enzyme, 1 min
molecule,measurement,setting,value
"BZU3 (maize UDP-glucose 4-epimerase), recombinant 6×His-BZU3 (enzyme)",stoichiometry N,[1],2
NC(=O)c1ccc[n+]([C@@H]2O[C@H](COP(=O)(O)OP(=O)(O)OC[C@H]3O[C@@H](n4cnc5c(N)ncnc54)[C@H](O)[C@@H]3O)[C@@H](O)[C@H]2O)c1 [NAD^+],X-ray crystal structure,BZU3 [2],both Y157 and K161 directly interact with the ribose moiety of NAD^+
CC(=O)N[C@H]1[C@@H](OP(=O)(O)OP(=O)(O)OC[C@H]2O[C@@H](n3ccc(=O)[nH]c3=O)[C@H](O)[C@@H]2O)O[C@H](CO)[C@@H](O)[C@@H]1O [UDP-GlcNAc],"X-ray crystal structure, 2.15 Å, soaked with 5 mM ligand",BZU3 [3],The structure of BZU3 in complex with NAD^+/UDP-GlcNAc was similar to that of BZU3/NAD^+/UDP-Glc
"BZU3 (Zea mays) (protein, residues 1-189 NAD domain, 190-355 sugar domain; homo-dimer) MVSAVLRTILVTGGAGYIGSHTVLQLLQQGFRVVVVDNLDNASEAALARVAELAGHDGANLVFHKVDLRDRHALVDIFSSHRFEAVIHFAGLKAVGESVHKPLLYYDNNLVGTITLLEVMAANGCKKLVFSSSATVYGWPKEVPCTEEFPLCATNPYGRTKLVIEDICRDVHRSDPDWKIILLRYFNPVGAHPSGYIGEDPCGVPNNLMPYVQQVAVGRLPHLTVYGTDYSTKDGTGVRDYIHVVDLADGHIAALRKLYEDSDKIGCEVYNLGTGKGTSVLEMVAAFEKASGKKIPLVFAGRRPGDAEIVYAATAKAEKELKWKAKYGIEEMCRDLWNWASKNPYGYAGSRDNSK",Km,[4],400 µM
same,Km,[5],500 µM
same,Km,[6],2670 µM
same,Km,[7],1450 µM
